These results are taken from US20110033929A1.

In test [1] the target is human Langerin (human) (UniProt Q9UJ71). Description: immunogold electron microscopy, 4° C., Langerhans cells of epidermal cell suspensions; isotype control for DCGM4.
Test [2] shares this target. The test is described as follows: cell-based or functional assay.
For test [3] the target is unchanged. Description: immunogold electron microscopy, 4° C., 5 nm gold goat anti-mouse IgG, Langerhans cells of epidermal cell suspensions.

Sequence of UniProt Q9UJ71 (Q9UJ71 whole entry V278A): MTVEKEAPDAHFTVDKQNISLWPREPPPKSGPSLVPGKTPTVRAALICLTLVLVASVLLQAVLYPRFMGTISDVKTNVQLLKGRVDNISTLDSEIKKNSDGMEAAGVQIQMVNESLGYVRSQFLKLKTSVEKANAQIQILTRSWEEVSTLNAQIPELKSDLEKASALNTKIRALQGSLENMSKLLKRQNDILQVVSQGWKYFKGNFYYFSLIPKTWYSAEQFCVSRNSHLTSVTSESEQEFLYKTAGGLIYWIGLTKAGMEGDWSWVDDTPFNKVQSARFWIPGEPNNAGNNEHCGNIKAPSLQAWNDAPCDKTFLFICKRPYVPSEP

For the substance control mouse IgG1 (Sigma) (antibody), the gold granules/100 µm membrane (granules/100 µm) in the test with human Langerin (human) [1] worked out at 1.3.
As to monoclonal antibody DCGM4, in the test with human Langerin (human) [2], the half-life (t1/2) of DCGM4 at the cytomembrane came to 4.5 min and the internalization (decrease of cell-surface-bound antibody by FACS) came to 75%. The internalization rate k in the test with human Langerin (human) [2] (scale: °/min) amounted to 15.3. In the test with human Langerin (human) [3], this substance registered a gold granules/100 µm membrane (gold granules/100 µm membrane) of 162.
